Laboratory results reported in the supplement of paper PMC5998384.

How the values were obtained:
HeLa Kyoto [1] = assay: solubility in G1/S (NP-40 vs SDS abundance) (log2 ratio); higher = more soluble; details: cell cycle stage: G1/S
HeLa Kyoto [2] = assay: melting temperature (median over replicates), in situ; higher = more thermally stable
HeLa Kyoto [3] = assay: solubility change mitosis vs G1/S (difference of NP-40 vs SDS log2 ratios) (log2 ratio difference); higher = more soluble in mitosis
HeLa Kyoto [4] = assay: thermal stability score vs G1/S (z-score of summed log2 fold changes over temperatures); higher = more thermally stable than in G1/S
[5] = cell cycle stage: early G1 (4.5 h after nocodazole release)
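Throughout, for melting temperature (median over replicates), in situ: HeLa Kyoto cells synchronized by double thymidine or nocodazole block, proteins quantified by TMT10plex mass spectrometry, three independent biological replicates.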
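Throughout, for solubility change mitosis vs G1/S (difference of NP-40 vs SDS log2 ratios): synchronized HeLa Kyoto cells (double thymidine block for G1/S, nocodazole release for mitosis), protein amounts in NP-40 versus SDS lysates quantified by mass spectrometry, three biological replicates.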
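Throughout, for solubility in G1/S (NP-40 vs SDS abundance): HeLa Kyoto cells arrested at G1/S by double thymidine block, proteins quantified by TMT10plex mass spectrometry in mild NP-40 versus SDS extracts, three biological replicates.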
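Throughout, for thermal stability score vs G1/S (z-score of summed log2 fold changes over temperatures): synchronized HeLa Kyoto cells, proteins quantified by TMT10plex mass spectrometry, three biological replicates, mitosis taken 0.5 h after nocodazole release, G1/S directly after double thymidine block.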

Row | Sequence | solubility in G1/S (log2) (HeLa Kyoto [1]) | melting temperature (HeLa Kyoto [2]; cell cycle stage: G1/S) | melting temperature (HeLa Kyoto [2]; cell cycle stage: mitosis) | solubility change mitosis (log2) (HeLa Kyoto [3]) | thermal stability score (HeLa Kyoto [4]; [5]) | thermal stability score (HeLa Kyoto [4]; cell cycle stage: mitosis)
1 | MSDAAVDTSSEITTKDLKEKKEVVEEAENGRDAPANGNAENEENGEQEADNEVDEEEEEGGEEEEEEEEGDGEEEDGDEDEEAESATGKRAAEDDEDDDVDTKKQKTDEDD [PTMA] | -1.5 | 54.9 °C | 55.1 °C | -0.00535 | -0.717 | -1.69
2 | MSDDDSRASTSSSSSSSSNQQTEKETNTPKKKESKVSMSKNSKLLSTSAKRIQKELADITLDPPPNCSAGPKGDNIYEWRSTILGPPGSVYEGGVFFLDITFTPEYPFKPPKVTFRTRIYHCNINSQGVICLDILKDNWSPALTISKVLLSICSLLTDCNPADPLVGSIATQYMTNRAEHDRMARQWTKRYAT [UBE2E1] | 0.338 | 48.5 °C | 49.5 °C | -0.151 | 1.73 | 3.2
3 | MSDEGSRGSRLPLALPPASQGCSSGGGGGGSSAGGSGNSRPPRNLQGLLQMAITAGSEEPDPPPEPMSEERRQWLQEAMSAAFRGQREEVEQMKSCLRVLSQPMPPTAGEAEQAADQQEREGALELLADLCENMDNAADFCQLSGMHLLVGRYLEAGAAGLRWRAAQLIGTCSQNVAAIQEQVLGLGALRKLLRLLDRDACDTVRVKALFAISCLVREQEAGLLQFLRLDGFSVLMRAMQQQVQKLKVKSAFLLQNLLVGHPEHKGTLCSMGMVQQLVALVRTEHSPFHEHVLGALCSLVTDFPQGVRECREPELGLEELLRHRCQLLQQHEEYQEELEFCEKLLQTCFSSPADDSMDR [HSPBP1] | 0.303 | 50.8 °C | 51.2 °C | 0.0712 | 0.863 | 0.675
4 | MSDEREVAEAATGEDASSPPPKTEAASDPQHPAASEGAAAAAASPPLLRCLVLTGFGGYDKVKLQSRPAAPPAPGPGQLTLRLRACGLNFADLMARQGLYDRLPPLPVTPGMEGAGVVIAVGEGVSDRKAGDRVMVLNRSGMWQEEVTVPSVQTFLIPEAMTFEEAAALLVNYITAYMVLFDFGNLQPGHSVLVHMAAGGVGMAAVQLCRTVENVTVFGTASASKHEALKENGVTHPIDYHTTDYVDEIKKISPKGVDIVMDPLGGSDTAKGYNLLKPMGKVVTYGMANLLTGPKRNLMALARTWWNQFSVTALQLLQANRAVCGFHLGYLDGEVELVSGVVARLLALYNQGHIKPHIDSVWPFEKVADAMKQMQEKKNVGKVLLVPGPEKEN [VAT1] | 0.232 | 55.9 °C | 55.3 °C | -0.125 | -0.577 | -3.49
5 | MSDKLPYKVADIGLAAWGRKALDIAENEMPGLMRMRERYSASKPLKGARIAGCLHMTVETAVLIETLVTLGAEVQWSSCNIFSTQDHAAAAIAKAGIPVYAWKGETDEEYLWCIEQTLYFKDGPLNMILDDGGDLTNLIHTKYPQLLPGIRGISEETTTGVHNLYKMMANGILKVPAINVNDSVTKSKFDNLYGCRESLIDGIKRATDVMIAGKVAVVAGYGDVGKGCAQALRGFGARVIITEIDPINALQAAMEGYEVTTMDEACQEGNIFVTTTGCIDIILGRHFEQMKDDAIVCNIGHFDVEIDVKWLNENAVEKVNIKPQVDRYRLKNGRRIILLAEGRLVNLGCAMGHPSFVMSNSFTNQVMAQIELWTHPDKYPVGVHFLPKKLDEAVAEAHLGKLNVKLTKLTEKQAQYLGMSCDGPFKPDHYRY [AHCY] | 0.0748 | 58.9 °C | 59.3 °C | -0.0568 | -2.93 | -2.39
6 | MSDLLLLGLIGGLTLLLLLTLLAFAGYSGLLAGVEVSAGSPPIRNVTVAYKFHMGLYGETGRLFTESCSISPKLRSIAVYYDNPHMVPPDKCRCAVGSILSEGEESPSPELIDLYQKFGFKVFSFPAPSHVVTATFPYTTILSIWLATRRVHPALDTYIKERKLCAYPRLEIYQEDQIHFMCPLARQGDFYVPEMKETEWKWRGLVEAIDTQVDGTGADTMSDTSSVSLEVSPGSRETSAATLSPGASSRGWDDGDTRSEHSYSESGASGSSFEELDLEGEGPLGESRLDPGTEPLGTTKWLWEPTAPEKGKE [TEX264] | -0.0622 | 51.2 °C | 51.2 °C | -0.257 | 0.0754 | -0.347
7 | MSDNGELEDKPPAPPVRMSSTIFSTGGKDPLSANHSLKPLPSVPEEKKPRHKIISIFSGTEKGSKKKEKERPEISPPSDFEHTIHVGFDAVTGEFTGMPEQWARLLQTSNITKLEQKKNPQAVLDVLKFYDSNTVKQKYLSFTPPEKDGFPSGTPALNAKGTEAPAVVTEEEDDDEETAPPVIAPRPDHTKSIYTRSVIDPVPAPVGDSHVDGAAKSLDKQKKKTKMTDEEIMEKLRTIVSIGDPKKKYTRYEKIGQGASGTVFTATDVALGQEVAIKQINLQKQPKKELIINEILVMKELKNPNIVNFLDSYLVGDELFVVMEYLAGGSLTDVVTETCMDEAQIAAVCRECLQALEFLHANQVIHRDIKSDNVLLGMEGSVKLTDFGFCAQITPEQSKRSTMVGTPYWMAPEVVTRKAYGPKVDIWSLGIMAIEMVEGEPPYLNENPLRALYLIATNGTPELQNPEKLSPIFRDFLNRCLEMDVEKRGSAKELLQHPFLKLAKPLSSLTPLIMAAKEAMKSNR [PAK2] | 0.152 | 54.9 °C | 54.6 °C | -0.119 | -1.97 | -1.45
